{
  "source": "the DeepSol protein solubility set",
  "test": "soluble on expression in E. coli; label from the status in PepcDB or PDB records",
  "data": [
    {"sequence": "MGHHHHHHMAGGGKHTPTPKAIIHQKFGAKASYTVEEVHDSSQSGCPGLAIPQKGPCLYRCHLQLPEFSVVSNVFKKKKDSEQSAAELALDKLGIRPQNDDLTVDEARDEIVGRIKYIFSDEFLSAEHPLGAHLRAALRRDGERCGSVPVSVIATVDAKINSRCKIINPSVESDPFLAISYVMKAAAKLADYIVASPHGLRRKNAYPSEIVEALATHVSDSLHSREVAAVYIPCIDEEVVELDTLYISSNRHYLDSIAERLGLKDGNQVMISRMFGKASCGSECRLYSEIPKKYLDNSSDASGTSNEDSSHIVKSRNARASYICGQDIHGDAILASVGYRWKSDDLDYDDVTVNSFYRICCGMSPNGIYKISRQAVIAAQLPFAFTTKSNWRGPLPREILGLFCHQHRLAEPILSSSTAPVKSLSDIFRSHKKLKVSGVDDANENLSRQKEDTPGLGHGFRCEVKIFTKSQDLVLECSPRKFYEKENDAIQNASLKALLWFSKFFADLDVDGEQSCDTDDDQDTKSSSPNVFAAPPILQKEHSSESKNTNVLSAEKRVQSITNGSVVSICYSLSLAVDPEYSSDGESPREDNESNEEMESEYSANCESSVEPIESNEEIEFEVGTGSMNPHIESEVTQMTVGEYASFKMTPPDAAEALILAVGSDTVRIRSLLSERPCLNYNILLLGVKGPSEERMEAAFFKPPLSKQRVEYALKHIRESSASTLVDFGCGSGSLLDSLLDYPTSLQTIIGVDISPKGLARAAKMLHVKLNKEACNVKSATLYDGSILEFDSRLHDVDIGTCLEVIEHMEEDQACEFGEKVLSLFHPKLLIVSTPNYEFNTILQRSTPETQEENNSEPQLPKFRNHDHKFEWTREQFNQWASKLGKRHNYSVEFSGVGGSGEVEPGFASQIAIFRREASSVENVAESSMQPYKVIWEWKKEDVEKKKTDL", "values": [
      {"measurement": "soluble on expression in E. coli", "result": "soluble"}
    ]},
    {"sequence": "MKLTLMFREYCSLCHKMRDELKPFQDEYGFGLEVVDVDENPVLEEKYNELVPVLLAGDEEICHWFLDEDRLKQFLER", "values": [
      {"measurement": "soluble on expression in E. coli", "result": "not soluble"}
    ]},
    {"sequence": "MSLAPPEGNPAAGKVAAGLCRTCHGLNGFARIPIAPHIGGEHPSYIRHQLEAFRSGTRQHEIMSVVAASLSDAQIADLSAWFAMQKIHVALKPGVDPHAAPEACALCHGADGVAVLEDAPNLAGENSVYLETQLKAFRTGKRTHEIMSPIAAELTDAEIRAAADWYAAVQLEIDEGHHHHHH", "values": [
      {"measurement": "soluble on expression in E. coli", "result": "not soluble"}
    ]},
    {"sequence": "SLLAMPSAISVAVLPDSPHAREMATKAHNSGHEVLIHLPMAPLSKQPLEKNTLRPEMSSDEIERIIRSAVNNVPYAVGINNHMGSKMTSNLFGMQKVMQALERYNLYFLDSVTIGNTQAMRAAQGTGVKVIKRKVFLDDSQNEADIRVQFNRAIDLARRNGSTIAIGHPHPSTVRVLQQMVYNLPPDITLVKASSLLNEPQVDTSTPPKNAVPDAPRNPFRGVKLCKPKKPIEPVYANRFFEVLSESISQSTLIVYFQHQWQGWGKQPEAAKFNASAN", "values": [
      {"measurement": "soluble on expression in E. coli", "result": "soluble"}
    ]},
    {"sequence": "MDKLIIGGIEIKNRLFVGSGKYPSNEIIKDVLEGSGSQVITLALRRVDLDNKEEDILQNIPKDVILLPNTSGATNAEEAIRIARIARAMGCGNWIKIEVISDSKYLLPDNEETIKATKVLADEGFIVLPYMCPDIYAGRRLIEAGAAAVMPLGAPIGSNRGLKTKELIQIMIDELDIPIIVDAGIGKPSQAMEAMEMGAAACLVNTAIASSEDPINMARAFKVAVEGGRLAYEAKMGRESKFGNASSPLTGFLDLEHHHHHH", "values": [
      {"measurement": "soluble on expression in E. coli", "result": "not soluble"}
    ]},
    {"sequence": "LSFQDELMRALNPDVLVVQKRPEGVLPLDELVRRIEGAEPGRKVAFVWVEMDSDKAGRIFYTPPPGQRRGESRWIDPYTGAFVGEPRGEGFFNLMMQLHRFLAMGEYGKQV", "values": [
      {"measurement": "soluble on expression in E. coli", "result": "not soluble"}
    ]},
    {"sequence": "MSTKPPIERIMYIQMRTSLEMFRSDLVDLEALANAAKEALEQLPYIPKEPCGKGEDDPLSGPESALRTGRLCGLVCCTATAAENALSTCSKLIDWAYANEPDGVDDAVLADDDDDDDDDDEGGGNGANGGGGTNGGGDGSNGSGNGSPPDGGGVGAAPSPGRGELAETRPSRSGVALDLTPAPAPAGTPVA", "values": [
      {"measurement": "soluble on expression in E. coli", "result": "not soluble"}
    ]},
    {"sequence": "MSKIAIIVDSSSYIPKDQLKKHHIYVIDNPIIFGETIYHEFNWPVNADFYQQMATTPIQPTTSQPAPGDFEAAFQAAKDDGYKQALVITLSSGFSGTFLNTSAIASSHSDIDIHVWDSRIACLGAGNQALLAAYLAEKGIGIDEILSKLQILRSRTGVFFVVDSISHLQRTGRLSGGQALVAGLLNIKPILNINTNKQGKIDAVAKTRKMSGAWRYIEKHFAKIADNYQRAGWPMRVSILDADNPELADAWLKRAEKRWPEIIFERGIIGPLVGVHIGGKAVGLIWAEDYKRLED", "values": [
      {"measurement": "soluble on expression in E. coli", "result": "not soluble"}
    ]},
    {"sequence": "MAGGLFKLMKDKSVDHSHLHKDHSIHHPTPPRSFFSSSSLAVHPNVETAQSSSEEDLRMPNIKVFSGSSHPDLSTRICERLQLEVSKASLKKFSNKETNVEIGESVRGEDVYIIQSAAGEINDNLMELLIMINACKIASSCRVAAVIPAFPYARQDKKDKSRAPISAKLVANMLSVAGADHIITMDLHASQIQGFFDIPVDNLYAEPAILKYIKESIPNWQTSVIVSPDAGGAKRVTSIADRLNVDFALIHKESKRANEVEKMTLVGSVEGKVAILVDDMADTCGTICMAADKLVEAGADKVYAFCVHGIFSGPALTRLNASKFEAVVVTNTIPQDENMKKCSKIQCIDISMILAEAIRRTHNGESVSYLFSHVPIC", "values": [
      {"measurement": "soluble on expression in E. coli", "result": "not soluble"}
    ]},
    {"sequence": "GPGSMLTTTDVGGVVRRINVDYKKLKAAYDQNNDSLCLNLVNGLKKQLILLPTFLNPAAASATWLEEVTLTREVLEYAVLVSARLEDLASFELYFNQLSVYYTDIDPTKLEESPLYSLILGLNLVRLLVDDRIAQFHTELEKVPNHIYAPNAYVRFAVLLERYLMEGSYSKLLNSRDQAPSKEYIPIVGMLEKTVRQGVAECIPHSYAKLSFERAQKILMVDSTDAVREIGKQYEWELGKDGASFVFTRREDIAKREVPFQEMLGHHLNFAADLQRIV", "values": [
      {"measurement": "soluble on expression in E. coli", "result": "soluble"}
    ]},
    {"sequence": "MSLGIRIGDGCIFRDPLTTRIDVSRPALVSIGSNVDMNTYFQILTHDWASFVFRNKYHDFVNSSGRVEIGSNIYIGTNVIVLRGVTIGDNCVIGAGSVVTHDIPANSVAVGAPCRVVCSLDEYYQKRKVKGLQEAVEHVKAFQKNFGRDPLPHELYEEFIYFVDASNVEEYERQGVPVRSQLSIAYGDWLSTHKAKFSSYDDFIQYVNQKMNETLEHHHHHH", "values": [
      {"measurement": "soluble on expression in E. coli", "result": "not soluble"}
    ]},
    {"sequence": "MSLVDMVNRPYERAFEQHALANPDVLCISADLTSSCEIDKFRDNHPDQFLSMGMAEQNMMSFCGGLGLAGFRPFVHTFGVFTYRRPYDQLMASIAYPRRKVRIMGFLPGITTPGGMTHQAIEDIAVMRSMPNMTILETGDATEVESICAAADSIDGPVYCRVLRGSVPRLFDTPIKVGEMREISLGDDVLIVTAGITTEEAMRATRALEAAGVSVRHLHLHTIKPFDAGALLDHIGAVRGGVITLENHVTEGGIGSLVAEVMADNGIGKKLRRLGLKDTYAHGGSRAYLMRYYGLDALALTRGVEDLLGQPLGITEEDLAQARVEAVHSLAKAEGEGHHHHHH", "values": [
      {"measurement": "soluble on expression in E. coli", "result": "not soluble"}
    ]},
    {"sequence": "MGSDKIHHHHHHMSLTIDGVTKKFGTFTAVNNLHVSVPKGEMFGMLGANGAGKTTTFRMILGLLEPTEGTIHWREQPLTYNQTNCIGYLPEERGLYPKLTVKDQLKYLGRLKGMKTQDIQKEMKMWLERFEVPEYEHKRVEQLSKGNQQKIQFIASVLHRPELLILDEPFSGLDPVNVELLKKAVIDLKKEGTTILFSSHRMEHVEELCQHLCILHRGSPVVEGNLKNIKRSFGKKNVIIQGEFALEPLVDIPGVLRHQETSAGAKFQIANEETAKLLFQAVATAGFVQKFELEEPSLHDIFVEKVGTRYE", "values": [
      {"measurement": "soluble on expression in E. coli", "result": "not soluble"}
    ]},
    {"sequence": "MKSGERSAVADRAQQIMSAARELLDAEGPDALSMRRIAERVGIRAPSLYKHFADKAALVAGLQAQGLTLLAEVQEAAEAEIGADPPLLVLGYAYRRHALASPHLYRITHGWPLARTALPEGLEDRAALPLARAVHGDINIARSFWAFAHGMVVLELDGRFPPGADLDVAWRTGCEAFTQAIRNRPHGSTA", "values": [
      {"measurement": "soluble on expression in E. coli", "result": "not soluble"}
    ]},
    {"sequence": "MSLASISLPVGGRLLPYELTGRPVPLKGRDAAAFPRVAFAAAHVVADPLADNDPWVTPAIDWERTLAFRHRLWDLGLGVAESMDTAQRGMGLGWPEARELIGRSLSEARGRSGALIACGAGTDHLVPGPNVTIDEILRAYESQIETIEAEGGRIILMASRALAAAAKGPEDYFRVYDRILSQVKEPVIIHWLGEMFDPALEGYWGNADHMAAMKTCLDVIEAHAAKVDGIKISLLSKKKEIVMRRQLPKGVRMYTGDDFNYAELISGDEEGYSDALLGIFDAIAPVASAALEALGGGRNGEFFELLDPTVPLSRHIFKAPTRFYKTGVVFLAYLNGLQDHFAMIGGQQSARSLVHLAELFRLADRAGVLQDPELAAGRMRRVLAVNGVAEGHHHHHH", "values": [
      {"measurement": "soluble on expression in E. coli", "result": "soluble"}
    ]},
    {"sequence": "MPKIRIKLRGFDHKTLDASAQKIVEAARRSGAQVSGPIPLPTRVRRFTVIRGPFKHKDSREHFELRTHNRLVDIINPNRKTIEQLMTLDLPTGVEIEIKTVGGGR", "values": [
      {"measurement": "soluble on expression in E. coli", "result": "soluble"}
    ]},
    {"sequence": "GVKYAYHGGAMANGIASVELVVALGKAGFLCSFGAAGLVPDAVEDAIKRIQAELPNGPYAVNLIHAPAEEALERGAVERFLKLGVKTVEASAYLGLTEHIVWYRLAGLSKNSDGSVKIGNKVIAKVSRTEVGRRFMEPAPQKLIDKLLAQGKVTQEQAELSKLVPMADDITAEADSGGHTDNRPFLTLLPTIIALRDEVQAQYNFSPALRVGAGGGIGTPEAALAAFNMGSAYIVLGSVNQACVEAGASEYTRKLLAQVEMAD", "values": [
      {"measurement": "soluble on expression in E. coli", "result": "not soluble"}
    ]},
    {"sequence": "LDPPSGELSLPEDIPGEAKVYFDDEGVPYIHASSDEAAFYAAGWVHASLRLFQMDVFRRVGLGELSGLVGEAGLEADRRAAILGLRSVVDAEWRHIQNNPEFGEIVRIVEAYTAGVNGYISYALKTGRLPVEYRVLGVKPSPWLPQDTLAMAKVLALMLSYSEDDLILDRLVRKWGPEVIADFDIVGRSLNMPHASCDMAVDWGDVTGLEGPYNPLLSVEERREPLHESEPLDLGYNPDPEIIAAVVDRVLYMLSWNAASNNWVVSGSLTVSGNPLLANDPHLSLTAPGIWLPIVISSPSYSLAGVTIPGVPLVVIGRNSHVAWGFTNVGSDFTDFYRYQWVDENRYFYKGRIFGVEKSSIEAYVWDPLARSYRVQEISVARTIHGPVIEWQGEKFAVSYTSARPTFEMIFLWLLNKASSVRDALSAQRYFYGPPQNMVVADSAGNIAYSPVGAYPERATLPTIETGYGPIVNTGFLPFDGSAGEGEWRGFKPYSSLPVLFNPPQGFVATANSKPFEDGCWDGLGWDYADRFRTERIYTLLQERSAEEPLDAGDMRDIQLDVEDLGLKTLVSLMVRVASGDGGHVLERYMDMLAEWAENPQM", "values": [
      {"measurement": "soluble on expression in E. coli", "result": "not soluble"}
    ]},
    {"sequence": "ACRISPGQINQVRPKLPLLKILHAAGAQGEMFTVKEVMHYLGQYIMVKQLYDQQEQHMVYCGGDLLGELLGRQSFSVKDPSPLYDMLRKNLVTLATATTDA", "values": [
      {"measurement": "soluble on expression in E. coli", "result": "soluble"}
    ]}
  ]
}
